Results reported in US7422862B2, “Methods for identifying modulators of apoptosis” (The Burnham Institute, priority 2001, dated 2008).
No end group written: not given here.

Experiments:
[1] = molecular target: T1, Bax (Homo sapiens, UniProt Q07812); assay: Co-immunoprecipitation of GFP-Humanin fusion polypeptides with Bax in transfected cells; type: binding; set-up: expressed in transfected cells; host or cells: HEK293T; key to Bax binding: +: ability to bind Bax was determined by co-immunoprecipitation assay; −: lacked Bax-binding activity; conditions: for Bax binding: GFP-fusion polypeptides, co-immunoprecipitation
From the text: Humanin (HN) cDNA was sub-cloned into a Green Fluorescence Protein (GFP) expression vector GFP-Cl at the Xhol/Hind III sites, producing a GFP-HN fusion polypeptide. GFP and GFP-HN were transfected into 293T cells with pcDNA3-HA-Bax. Cell lysates from these cells were immunoprecipitated with anti-GFP antibody and subsequently blotted with anti-HA antibody. The lysates were also blotted with ani-GFP antibody to confirm polypeptide expression. […] The data shown were obtained using the cytosolic form of Humanin; however, both cytosolic and mitochondrial forms of Humanin were tested and the results were the same.
Co-immunoprecipitation assays were performed using Humanin polypeptides expressed as fusion polypeptides with the Green Fluorescent Protein (GFP) in human cells. Wild-type Humanin fused to GFP is referred to as GFP-HN and a mutant form of Humanin, where the cysteine at position 8 is replaced with proline, fused to GFP is referred to as GFP-C8P. […] Immunoblot analysis of lysates of the transfected cells confirmed production of all proteins. In addition, GFP-HN also coimmunoprecipitated endogenous Bax from cell lines, which contain relatively high levels of the Bax protein.
Immunoblotting and immunoprecipitations were performed as follows. Immunoblotting was performed as described previously (Fields and Song, Nature 340:245-246 (1989)). For co-immunoprecipitations, cells were cultured in 50 uM […] Valine Alanine Asparate fluoromethyl-ketone (zVAD-fmk) to prevent apoptosis. Cells were suspended in lysis buffer (50 mM Tris-HCl, pH7.4; 150 mM NaCl; 20 mM EDTA; 50 mM NaF; 0.5% NP-40; 0.1 mM Na3VO4; 20 ug/ml Leupeptin; 20 ug/ml Aprotinin; 1 mM DTT; and 1 mM PMSF). Lysates (200 ul diluted in 1 ml final volume of lysis buffer) were cleared by incubation with 15 ul of protein G-Sepharose 4B (Zymed) and then incubated with 15 ul of polyclonal antibody and 15 ul of protein G at 4° C. overnight. Beads were then washed 4 times with 1.5 mls lysis buffer before boiling in Laemmli sample buffer and performing SDS-PAGE/immunoblotting.
(§1) In order to explore whether a correlation exists between Humanin binding to Bax and Humanin-mediated suppression of apoptosis, Bax was co-expressed with various GFP-fusion polypeptides encoding wild-type, full-length Humanin or various truncation and site-specific mutants of Humanin (Table 1). Expression of all GFP-fusion polypeptides was confirmed by immunoblotting, and ability to bind Bax was determined by co-immunoprecipitation assay. Each Humanin mutant was scored for ability to suppress apoptosis induced by Bax over-expression by >50% using a 3:1 ratio of HN:Bax plasmid DNA. […] Based on these studies, an active region of the 24 amino-acid Humanin peptide, mapped to residues 7-17.

[2] = molecular target: T1, Bax; assay: Suppression of apoptosis induced by Bax over-expression (Humanin mutants); type: cell-based; set-up: expressed in transfected cells; host or cells: HEK293T; conditions: GFP-fusion polypeptides, 3:1 ratio of HN:Bax plasmid DNA
Procedure: (§2) Apoptosis assays were performed as follows. Both floating and adherent cells (after trypsinization) were collected 48 hr after transfection, fixed, and stained using 4′,6-diamidine-2′-phenylindole dihydrochloride (DAPI) for assessing apoptosis based on nuclear fragmentation and chromatin condensation (Fields and Song, supra (1989)).
as §1
Cell culture and transfections were performed as follows. CSM14.1, HCT116, Cos-7, and SF268 cells were cultured in DMEM high glucose media (Irvine Scientific, Santa Ana, Calif.) containing 10% fetal bovine serum (FBS). PC-3 cells were cultured with RPMI 1640 media containing 10% FBS. Transfection of cells was performed using SuperFect (Qiagen, Chatsworth, Calif.) or LipofectaminePLUS reagent ([…]).

[3] = molecular target: T1, Bax; assay: Bax-induced apoptosis in transfected neuronal cells (DAPI staining); type: cell-based; set-up: expressed in transfected cells; conditions: CSM14.1 cells, 48 h, DAPI
Procedure: (A) HEK293T cells were transfected with pcDNA3-HA-Bax together with plasmids encoding GFP, GFP-HN(N), or GFP-HN(M). Cell lysates were immunoprecipitated with polyclonal anti-GFP antibody. Immunoprecipitates (IP) or cell lysates were analyzed by immunoblotting using anti-HA or anti-GFP antibodies, respectively. (B) CSM14.1 neuronal cells were co-transfected with pcDNA3-HA-Bax together with plasmids encoding GFP, GFP-HN(N), or GFP-HN(M). Percent apoptosis was determined 48 h later by DAPI staining (mean±SD; n=3).
Rat neuronal cell line CSM14.1 cells were transfected with various plasmids using the Lipofectamine reagent (Invitrogen). For transfection, 10×10^5 cells were plated per well using 6 well plates. Each well received 1 μg DNA plus […] of Lipofectamine. After 24 hours of transfection, the percentage of cell death was determined using 4′-6-diamidino-2-phenylindole (DAPI) staining. […] The data shown were obtained using the cytosolic form of Humanin; however, both cytosolic and mitochondrial forms of Humanin were tested and the results were the same.
as §2
Since Humanin co-immunoprecipitates with Bax but not Bak, the effects of Humanin over-expression on apoptosis induced by these members of the Bcl-2 family was compared. […] Similar results were obtained regardless of whether Humanin was fused to the N- or C-terminus of GFP, with both of these GFP fusion polypeptides localizing to the cytosol of cells.

T1 sequence (Q07812 whole entry, species assumed, the tested form may be a part): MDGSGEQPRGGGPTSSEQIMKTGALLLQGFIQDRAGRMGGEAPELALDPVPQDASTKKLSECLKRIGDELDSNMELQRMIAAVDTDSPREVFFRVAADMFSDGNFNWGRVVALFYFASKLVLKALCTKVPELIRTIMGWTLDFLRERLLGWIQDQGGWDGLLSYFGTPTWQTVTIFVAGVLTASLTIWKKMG

Row | Substance | Bax binding [1] | suppression of Bax-induced apoptosis, nuclear vs mitochondria-encoded form [3] | co-immunoprecipitation with tagged Bax ([1]; 293T/HEK293T cells, anti-GFP immunoprecipitation) | Bax suppression [2]
1 | 1-15: GFP-fusion of Humanin truncation, residues 1-15 (MAPRGFSCLLLLTSE; also: fused to GFP; UniProt Q8IVG9 1-15, looked up, fragment) | − |  |  | − (failed to protect against Bax-induced apoptosis)
2 | 13-24: GFP-fusion of Humanin truncation, residues 13-24 (TSEIDLPVKRRA; also: fused to GFP; UniProt Q8IVG9 13-24, looked up, fragment) | − |  |  | − (failed to protect against Bax-induced apoptosis)
3 | 3-19: GFP-fusion of Humanin truncation, residues 3-19 (PRGFSCLLLLTSEIDLP; also: fused to GFP; UniProt Q8IVG9 3-19, looked up, fragment) | + |  |  | + (ability to suppress apoptosis induced by Bax over-expression by >50%)
4 | 3-24: GFP-fusion of Humanin truncation, residues 3-24 (PRGFSCLLLLTSEIDLPVKRRA; also: fused to GFP; UniProt Q8IVG9 3-24, looked up, fragment) | + |  |  | + (ability to suppress apoptosis induced by Bax over-expression by >50%)
5 | 3-18: GFP-fusion of Humanin truncation, residues 3-18 (PRGFSCLLLLTSEIDL; also: fused to GFP; UniProt Q8IVG9 3-18, looked up, fragment) | + |  |  | + (ability to suppress apoptosis induced by Bax over-expression by >50%)

Now from value to substance, other results behind:

Row | Bax binding [1] | suppression of Bax-induced apoptosis, nuclear vs mitochondria-encoded form [3] | co-immunoprecipitation with tagged Bax ([1]; 293T/HEK293T cells, anti-GFP immunoprecipitation) | Substance | Bax suppression [2]
6 |  | suppressed to comparable extents | comparable amounts | GFP-HN(M): mitochondria-encoded Humanin (SEQ ID NO:3, 21 amino acids, Met at position 16) as GFP fusion | 
7 | + |  |  | 1-17: GFP-fusion of Humanin truncation, residues 1-17 (MAPRGFSCLLLLTSEID; also: fused to GFP; UniProt Q8IVG9 1-17, looked up, fragment) | + (ability to suppress apoptosis induced by Bax over-expression by >50%)
8 | + |  |  | 7-24: GFP-fusion of Humanin truncation, residues 7-24 (SCLLLLTSEIDLPVKRRA; also: fused to GFP; UniProt Q8IVG9 7-24, looked up, fragment) | + (ability to suppress apoptosis induced by Bax over-expression by >50%)
9 | + |  |  | 3-17: GFP-fusion of Humanin truncation, residues 3-17 (PRGFSCLLLLTSEID; also: fused to GFP; UniProt Q8IVG9 3-17, looked up, fragment) | + (ability to suppress apoptosis induced by Bax over-expression by >50%)
10 | − |  |  | GFP Only: Green Fluorescent Protein control without Humanin [reference compound] | − (failed to protect against Bax-induced apoptosis)
11 | + |  |  | 4-24: GFP-fusion of Humanin truncation, residues 4-24 (RGFSCLLLLTSEIDLPVKRRA; also: fused to GFP; UniProt Q8IVG9 4-24, looked up, fragment) | + (ability to suppress apoptosis induced by Bax over-expression by >50%)
12 | − |  |  | 1-12: GFP-fusion of Humanin truncation, residues 1-12 (MAPRGFSCLLLL; also: fused to GFP; UniProt Q8IVG9 1-12, looked up, fragment) | − (failed to protect against Bax-induced apoptosis)
13 | − |  |  | 10-24: GFP-fusion of Humanin truncation, residues 10-24 (LLLTSEIDLPVKRRA; also: fused to GFP; UniProt Q8IVG9 10-24, looked up, fragment) | − (failed to protect against Bax-induced apoptosis)
